Test: yeast display, Sf9 membrane polyspecificity reagent, FACS + sequencing; frameworks hold sequencing errors
Method in brief: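 A nanobody's polyreactivity label depends on the gate it was sorted from. Yeast display cells were stained with 10% biotinylated, detergent-solubilized Sf9 membrane reagent for 1 hour at 4 °C, enriched on streptavidin microbeads and sorted by FACS. The low and high (top ~1%) gates were set on anti-HA fluorescence for expression and streptavidin fluorescence for reagent binding.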

Sequence | polyreactivity (PSR sort gate)
QVHLVESGGGLVQAGGSLRLSSAASGITFVINAMGWYRQAPGKERELVASINFDTDTTYADSEKGRFTISRDNAKNTVYLQMNSLKPEDTAVYYCNADLPWARHTVDSIEFDYWGQGTQVTVSS | low polyreactivity
QVQLVESGGGLVQAGGSLRLSCAASGSIFYYNAMGWYRQAPGKERELVAAISRSGGSTYYADSVKGRFTISRDNAKNTVYLQMNSLKPEDTAVYYCAARPNFTPYEYGYWGQGTQVTVSS | low polyreactivity
QVQLVESGGGLVQAGGSLRLSCAASGSIFTWYVMGWYRQAPGKERELVAAITSGGRTYYADSVKGRFTISRDNAKKTVYLQMNSLKPEDTAVYYCAADSIGRLWGYGYWGQGTQVTVSS | high polyreactivity
QVQLVESGGGLVQAGGSLRLSCAASGSIFVNYAMGWYRQAPGKERELVAAISTGGGRTFYADSVKGRFTISRDNAKNTVYLQMNSLKPEDTAVYYCNNLGRTEYDYWGQGTQVTVSS | high polyreactivity
QVQLVESGGGLVQAGGSLRLSCAASGRIFGIYAMGWYRQAPGKERELVASITGSSGSTNYADSVKGRFTISRDNAKNTVYLQMNSLKPDDTAVYYCAADIPSYYWWRAYDYWGQGTQVTVSS | low polyreactivity
QVQLVESGAGLVQAGGSLRLSCAASGNIFRFYAMGWYRQAPGKERELVAAISYNGGRTYYADSVKGRFTISRDNAKNTVYLQMNILKPEDTAVYYCNAAGRDDAYDYWGQGTQVTVAS | high polyreactivity
QVHLVESGGGLVQAGGSLRLSCAASGSTFYANAMGWYRQAPGTERELVAAITSGGSTNYADSVKGRFTISRDNAKNTFYLQMNSLKPEDTAVYYCAADGGDQERGDYWGQGTQVTVSS | low polyreactivity
QVQLVESGGGLVQAGGSLRLSCAASGSTFFGNAMGWYRQAPGKERELVAAITSGGSTNYADSVKGRFTISRDNAKNTVYFQMNSLKPEDTAVYYCAKPSRWGWTGFYAYDYWGQGTQVTVSS | low polyreactivity
QVQLVESGGGLVQAGGSLRLSCAASGFIFWWYAMGWYRQAPGKERELVAGITGSGGTTYYADSVKGRFTISRDNAKNTVYLQMNSLKPEDTAVYYCAARSRSRPKYDYWGQGTQVTVSS | high polyreactivity
QVQLVESGGGLVQAGGSLRLSCAASGRSFTGYAMGWYRQATGKERELVASISDSGASTYYADSVKGRFTISRDNAKNTVYLLMNSLKPEDTAVFYCAASYPSYNWSVGDDDYWGQGTQVTVSS | low polyreactivity
QVQLVESGGGLVQAGGSLRLSCAASGSTFVTNAMGWYRQAPGTEREFVAAISWISTSTYYADSVKGRFTISRDNAKNTVYLQMNSLKPEDTAVYYCNATTFAFSPSLKGAYGYWGQGTQVTVSS | low polyreactivity
HVQLEESGGGLVQAGGSLRLSCAASGITFYKYVMGSYRQAPGKERELVAAITYSGGSRYYADSVKGRFTISRDNAKNTVYLPMNSLKPEDSAVYYWNAYYYWYFPYTYDYWGQGTQVTVSS | high polyreactivity
QVQLVESGGGLVKAGGSLRLSCAASGNIFRRYAMGWYRQARGKERELVAAITWRGGNTYYADSVKGRFTISRDNAKNTVYLQMNCLKPEDTAVYYCNRVYRQRLGRDYWGLGTQVTVSS | high polyreactivity
PVQLVESGGGLVQAGGSLRLSCAASGSIFASYAMGWYREAPGKERELVAAISSSSGSTYYADSVKGRFTISRDNAKNTVYLQMTSLKPEDTAVYYCAAESGRRIKYWRGYYYWGQGTQVTVSS | low polyreactivity
QLQLEESGGGLVQAGGSLRLSSAASGSIFYPNVMGWYRQAPGKERELVAAISWGGTSTNYADSVKGRFTISRDNAKNTVYLQMNSLKPEDTAVYYCAARTYWYGYNYWGQGTQVTVSS | high polyreactivity
QVQLVESGGGLVQAGGSLRLSCAASGLIFARNAMGWYRQAPGKETELVAAISKRGGSTYYADSVKGRFTISRDNAKNTVYLQMNSLKPDDTAVYYCNARYFRWWDMGYWGQGTQVNVSS | high polyreactivity
QVQLVESGGGLVQAGGSLRLSCADSGRIFRYYAMGWYRQAPGKERELVAAITWSGGTTIYADSVKGRFSISRDNAKNTVYLQMNSLKPEDTAVYYCNAARSRGANLVPPYRLYYWGQGTQVTVSS | low polyreactivity
QVQLVESGGGLVQAGGSLRLSCAASGSIFSGYAMGWYRQAPGKESDLVAAISGSGGSTFYADSVKGRFTISRDYAKNTVYLQMNSLKPEDTAVYFCAARRIAPYGRYDYWGQGTQVTVSS | low polyreactivity
QVQLVESGGGLVQAGGSLRISCAASVSTFGRYAMGWYRQAPGKERELVAAISRGTTTNYADSVKGRFTISRDNAKNTVYLQMNSLKPEDTAVYYCAADQPSKRYYYWGQGTQVTVSS | low polyreactivity
QVQLVESGGGLVQAGCSLRLSCAASGNSFPSYAMGWYRQAPGKARELVAAITTGGRTYYADSVKGRFTISRDNAKNTVYLQMNSLNPEDTAVYYCAADWGVRYPWYRYYYWGQATQVTVSS | high polyreactivity
QGQLVESGGGLVQAGGSLRLSCAASGRTFSVNDMGWYRQAPGKERELVAAMSFSGGRTYYADSVKGRFTISRDNAKNTVYLQMNSLKPEDTAVYYCAADIRGYDYWGQGTQVTVSS | high polyreactivity
QVQLVESGGGLVQAGGSLRLSCAASGSTFTANAMGWYRQAPGKERELVAAISRSGGSTYYADSVKGRFTISRDNAKNTVYLQMNSLKPEDTAVYYCAADEYYQVSAYDYWGQGTQVTVSS | low polyreactivity

Sequence | polyreactivity (PSR sort gate)
QVQLVESGGGLVQAGGSLRLSCAASGRTFYSNAMGWYRQAPGKERELVAAITSGGSTNYADSVKGRFTISRDNAKNTVYLQMNSLKPEDSAVYYCAVRGYWTIRSRRYYYWGQGTQVTVSS | high polyreactivity
HVQLVESGGGLVQAGGSLRLICAASGRSFSPYAMGWYRLAPGKERELVAAITNGDSTNYADSVKGRFTISRDNAKNTVYLLMNSLKPEDTAVYYCNAAAEISSFDYDYWGQGTQVTVSS | low polyreactivity
QFQLVESGGGLVQAGGSLRLSCAASGCIFLYYAMGSYRPATGNERELVASISSGGSTNYADSVKGRFTISRDNAKNTVYLQMNSLKPEDTAVYYCAARPYGGGRRSIYYYWGQGTQVTESS | high polyreactivity
QVQLVESGGGLVQAGGSLRLSCAASGSTFSDYVMGWYRQAPGKERELVAAISWSGDRTYYADSVKGRFTISRDNAKNTFYLQMNSLKPEDTAVYYCAAEYAPSDPSYYYGYDYWGQGTQVTVSS | high polyreactivity
QVHLVESGGGLVQAGGSLRLSCAASGLIIRYYAMGWYRQAPWKERELVAAITSRGGSTYYADSVKGRFKISRDNAKNTVYLQMNSLKPEDTAVYSCAAGLIFVSRFYVPYDYWGQGTQVTVSS | high polyreactivity
QVQLVESAGGLVQAGGSLRLSCAATGSIFHPYAMGWYRQAPGKERELVASITSSGGSTYYADSVKVRFTISRENAKNTVYLEMNSLKPEDTAVYYCKAQFLVYFFWYSTTAYIMYYWGQGTQVTVSS | low polyreactivity
QVQLVESGGGLVQAGGSLRLSCASSGRTFAWYAMGWYRQAPGKERELVAAISNVGSTYYADSVKGRFTISRDNAKNTVYLQMNSLKPEDTAVYYCNADAVSTDGREYWGQGTQVTVSS | low polyreactivity
QVQLVESGGGLVQAGGSLRLSCAASGFTFPAYAMGWYRQAPGKERELVAAISSRGGSTYYADSVKGRFTISRDNAKNTVYLQMNSLKPEDTAVYYCASRRANGYYYWGQGTQVTVSS | high polyreactivity
QVQLVESGGGLVQAGGSLRLSCAASGLIFYYYAMGWYRQAPGKERELVAAITTGGGTYYADSVKGRFTISRDNAKNTVYLQMNSLKPEDTAVYYCAVYYRSYWGYEYWGQGTQVTVSS | high polyreactivity
QVQLVESGGGLVQAGGSLRLSCAASGNTLDYYAMGWYRQAPGKEREVVEGIDDRTSTNYADSVKGRFTISRDNAKYTVYLQMNSLKPEDTAVYYCNADDGTVNYTSYYSPAVTYDSWGQGTQVTVSS | low polyreactivity
QVQLVESGGGLVQAGGSLRLSCASSGSTFYTNAMGWYRQAPGKERELVAGISSGGSTYYADSVKARFTISRDNAKNTVYLQINSLKPEDTAVYYCAAVERTRYWEFYYWGQGTQVIVSS | high polyreactivity
QVQLVESGGGLVQAGGSLRLSCAASGSTLVYNDMGWYRQAPGKEREFVAAIRSNDGSTYYADSVKGRFTISRDNAKNTVYLQMNSLKPEDTAVYYCAARYPARGTLYYWGQGTQVTVSS | low polyreactivity
QVQLVESGGGLVQAGGSLRLSCAASGRIFLPNAMGWYRQAPGKEREFVASISWSGGSTYYADSVKGRFTISRDNAKNTVYLQMNSLNPEDTAVYYCAAQSPAYYSKSYWGQGTQVTVSS | low polyreactivity
QVQLVESGGGLVQAGCSLRLSCAASGFIFYWYAMVWKRQAPGKERELVAAISYDTGSTYYADSVKGRFTISRDKAKNSVYLPMNSLKPEDTAVYYCAADVYYKYYYWGQGSQVTVSS | high polyreactivity
QVQLVESGGGLVQAGGSLRLSCAASGRIFTSNTMGWYRQAAGKEGELVAAITSSGGSMYYADSVKGRFTISRDNAKNTVYLQMNSLKPEDTAVYYCAADTIGYHYWYDYWGQGTQVTVSS | low polyreactivity
QVQLVESGGGLVQAGGSLRLSCAASGSILRSYAMGWYRQAPGKERELVAAISSSGGSTYYADSVKGRFTISRDNAKNTVYLQMNSLKPEDTAVYYCAAATSRRFDYWGQGTQVTVSS | high polyreactivity
QVQLVESGGGLVQAGGSLRLSCAASGSIFPYNAMGWYRQAPGKERELVATISSGGSTNYADSVKGRFTISRDNAKNTVYLQMNSLKPEDTAVYYCATDDFWNVKFYAYYPEFDYWGQGTQVTVSS | low polyreactivity
QVQLVESGGGLVQAGGSLRLSCAASGLTFYLYVMGWYRQAPGKERELVAAISRRGGTTYYADSVKGRFTISRDNAKNTVYLQMNSLKPEDTAVYYCAADFFAGTQRTFDYWGQGTQVTVSS | high polyreactivity
QVQLVESGGGLVQAGGSLRLSCAASGLTFTHYAMGWYRQAPGKEMELVAAISSGGRTYYADSVKGRFTISRDNAKNTVYLQMNSLKPEDTGVYYCAAVTTVYTKYGYWGQGTQVTVSS | high polyreactivity
QVQLVESGGGLVQAGGSLRISCAASGSTLGYYAMGWYRPAPAKESELVAAISRGGGSTYYADSVKGRFTISRDNAKNTVYLQMNSLKPEVTAVYYCNKYFAYGDFDYWGQGTQVTVSS | high polyreactivity
QVQLVESGGGLVQAGGSLRLSCAASGRTFSSNAMGWYRPAPGKEREMVAAITRRSGSTYYADSVKGRFTISRDNAKNTVYLQMNSLKPEDTAVYYCNADIDSYREMDYWGQGTQVTVSS | low polyreactivity
